Patent US11945807B2, “Splicing modulator antibody-drug conjugates and methods of use” (EISAI R&D MANAGEMENT CO., LTD., priority 2018, dated 2024)

B1: AB205-ADL12-D2 (conjugate)
heavy: QVQLQQSGSELMMPGASVKISCKATGYTFSNYWIQRPGHGLEWIGEILPGTGRTIYNEKFKGKATFTADISSNTVQMQLSSLTSEDSAVYYCARRDYYGNFYYAMDYWGQGTSVTVSSAKTTPPSVYPLAPGSAAQTNSMVTLGCLVKGYFPEPVTVTWNSGSLSSGVHTFPAVLQSDLYTLSSSVTVPSSTWPSETVTCNVAHPASSTKVDKKIVPRDCGCKPCICTVPEVSSVFIFPPKPKDVLTITLTPKVTCVVVDISKDDPEVQFSWFVDDVEVHTAQTQPREEQFNSTFRSVSELPIMHQDWLNGKEFKCRVNSAAFPAPIEKTISKTKGRPKAPQVYTIPPPKEQMAKDKVSLTCMITDFFPEDITVEWQWNGQPAENYKNTQPIMDTDGSYFVYSKLNVQKSNWEAGNTFTCSVLHEGLHNHHTEKSLSHSPG
light: DIQMTQSTSSLSASLGDRVTISCSASQGINNYLNWYQQKPDGTVELLIYYTSTLQSGVPSRFSGSGSGTDYSLTISNLEPEDIGTYYCQQYSKLPRTFGGGTKLEIKRADAAPTVSIFPPSSEQLTSGGASVVCFLNNFYPKDINVKWKIDGSERQNGVLNSWTDQDSKDSTYSMSSTLTLTKDEYERHNSYTCEATHKTSTSPIVKSFNRNEC
B2: AB205-ADL1-D14 (conjugate)
heavy: QVQLQQSGSELMMPGASVKISCKATGYTFSNYWIQRPGHGLEWIGEILPGTGRTIYNEKFKGKATFTADISSNTVQMQLSSLTSEDSAVYYCARRDYYGNFYYAMDYWGQGTSVTVSSAKTTPPSVYPLAPGSAAQTNSMVTLGCLVKGYFPEPVTVTWNSGSLSSGVHTFPAVLQSDLYTLSSSVTVPSSTWPSETVTCNVAHPASSTKVDKKIVPRDCGCKPCICTVPEVSSVFIFPPKPKDVLTITLTPKVTCVVVDISKDDPEVQFSWFVDDVEVHTAQTQPREEQFNSTFRSVSELPIMHQDWLNGKEFKCRVNSAAFPAPIEKTISKTKGRPKAPQVYTIPPPKEQMAKDKVSLTCMITDFFPEDITVEWQWNGQPAENYKNTQPIMDTDGSYFVYSKLNVQKSNWEAGNTFTCSVLHEGLHNHHTEKSLSHSPG
light: DIQMTQSTSSLSASLGDRVTISCSASQGINNYLNWYQQKPDGTVELLIYYTSTLQSGVPSRFSGSGSGTDYSLTISNLEPEDIGTYYCQQYSKLPRTFGGGTKLEIKRADAAPTVSIFPPSSEQLTSGGASVVCFLNNFYPKDINVKWKIDGSERQNGVLNSWTDQDSKDSTYSMSSTLTLTKDEYERHNSYTCEATHKTSTSPIVKSFNRNEC
B3: AB205-ADL1-D4 (conjugate)
heavy: QVQLQQSGSELMMPGASVKISCKATGYTFSNYWIQRPGHGLEWIGEILPGTGRTIYNEKFKGKATFTADISSNTVQMQLSSLTSEDSAVYYCARRDYYGNFYYAMDYWGQGTSVTVSSAKTTPPSVYPLAPGSAAQTNSMVTLGCLVKGYFPEPVTVTWNSGSLSSGVHTFPAVLQSDLYTLSSSVTVPSSTWPSETVTCNVAHPASSTKVDKKIVPRDCGCKPCICTVPEVSSVFIFPPKPKDVLTITLTPKVTCVVVDISKDDPEVQFSWFVDDVEVHTAQTQPREEQFNSTFRSVSELPIMHQDWLNGKEFKCRVNSAAFPAPIEKTISKTKGRPKAPQVYTIPPPKEQMAKDKVSLTCMITDFFPEDITVEWQWNGQPAENYKNTQPIMDTDGSYFVYSKLNVQKSNWEAGNTFTCSVLHEGLHNHHTEKSLSHSPG
light: DIQMTQSTSSLSASLGDRVTISCSASQGINNYLNWYQQKPDGTVELLIYYTSTLQSGVPSRFSGSGSGTDYSLTISNLEPEDIGTYYCQQYSKLPRTFGGGTKLEIKRADAAPTVSIFPPSSEQLTSGGASVVCFLNNFYPKDINVKWKIDGSERQNGVLNSWTDQDSKDSTYSMSSTLTLTKDEYERHNSYTCEATHKTSTSPIVKSFNRNEC
B4: AB205-ADL5-D25 (conjugate)
heavy: QVQLQQSGSELMMPGASVKISCKATGYTFSNYWIQRPGHGLEWIGEILPGTGRTIYNEKFKGKATFTADISSNTVQMQLSSLTSEDSAVYYCARRDYYGNFYYAMDYWGQGTSVTVSSAKTTPPSVYPLAPGSAAQTNSMVTLGCLVKGYFPEPVTVTWNSGSLSSGVHTFPAVLQSDLYTLSSSVTVPSSTWPSETVTCNVAHPASSTKVDKKIVPRDCGCKPCICTVPEVSSVFIFPPKPKDVLTITLTPKVTCVVVDISKDDPEVQFSWFVDDVEVHTAQTQPREEQFNSTFRSVSELPIMHQDWLNGKEFKCRVNSAAFPAPIEKTISKTKGRPKAPQVYTIPPPKEQMAKDKVSLTCMITDFFPEDITVEWQWNGQPAENYKNTQPIMDTDGSYFVYSKLNVQKSNWEAGNTFTCSVLHEGLHNHHTEKSLSHSPG
light: DIQMTQSTSSLSASLGDRVTISCSASQGINNYLNWYQQKPDGTVELLIYYTSTLQSGVPSRFSGSGSGTDYSLTISNLEPEDIGTYYCQQYSKLPRTFGGGTKLEIKRADAAPTVSIFPPSSEQLTSGGASVVCFLNNFYPKDINVKWKIDGSERQNGVLNSWTDQDSKDSTYSMSSTLTLTKDEYERHNSYTCEATHKTSTSPIVKSFNRNEC
B5: AB205-ADL1-D1 (conjugate)
heavy: QVQLQQSGSELMMPGASVKISCKATGYTFSNYWIQRPGHGLEWIGEILPGTGRTIYNEKFKGKATFTADISSNTVQMQLSSLTSEDSAVYYCARRDYYGNFYYAMDYWGQGTSVTVSSAKTTPPSVYPLAPGSAAQTNSMVTLGCLVKGYFPEPVTVTWNSGSLSSGVHTFPAVLQSDLYTLSSSVTVPSSTWPSETVTCNVAHPASSTKVDKKIVPRDCGCKPCICTVPEVSSVFIFPPKPKDVLTITLTPKVTCVVVDISKDDPEVQFSWFVDDVEVHTAQTQPREEQFNSTFRSVSELPIMHQDWLNGKEFKCRVNSAAFPAPIEKTISKTKGRPKAPQVYTIPPPKEQMAKDKVSLTCMITDFFPEDITVEWQWNGQPAENYKNTQPIMDTDGSYFVYSKLNVQKSNWEAGNTFTCSVLHEGLHNHHTEKSLSHSPG
light: DIQMTQSTSSLSASLGDRVTISCSASQGINNYLNWYQQKPDGTVELLIYYTSTLQSGVPSRFSGSGSGTDYSLTISNLEPEDIGTYYCQQYSKLPRTFGGGTKLEIKRADAAPTVSIFPPSSEQLTSGGASVVCFLNNFYPKDINVKWKIDGSERQNGVLNSWTDQDSKDSTYSMSSTLTLTKDEYERHNSYTCEATHKTSTSPIVKSFNRNEC
B6: AB205-ADL5-D15 (conjugate)
heavy: QVQLQQSGSELMMPGASVKISCKATGYTFSNYWIQRPGHGLEWIGEILPGTGRTIYNEKFKGKATFTADISSNTVQMQLSSLTSEDSAVYYCARRDYYGNFYYAMDYWGQGTSVTVSSAKTTPPSVYPLAPGSAAQTNSMVTLGCLVKGYFPEPVTVTWNSGSLSSGVHTFPAVLQSDLYTLSSSVTVPSSTWPSETVTCNVAHPASSTKVDKKIVPRDCGCKPCICTVPEVSSVFIFPPKPKDVLTITLTPKVTCVVVDISKDDPEVQFSWFVDDVEVHTAQTQPREEQFNSTFRSVSELPIMHQDWLNGKEFKCRVNSAAFPAPIEKTISKTKGRPKAPQVYTIPPPKEQMAKDKVSLTCMITDFFPEDITVEWQWNGQPAENYKNTQPIMDTDGSYFVYSKLNVQKSNWEAGNTFTCSVLHEGLHNHHTEKSLSHSPG
light: DIQMTQSTSSLSASLGDRVTISCSASQGINNYLNWYQQKPDGTVELLIYYTSTLQSGVPSRFSGSGSGTDYSLTISNLEPEDIGTYYCQQYSKLPRTFGGGTKLEIKRADAAPTVSIFPPSSEQLTSGGASVVCFLNNFYPKDINVKWKIDGSERQNGVLNSWTDQDSKDSTYSMSSTLTLTKDEYERHNSYTCEATHKTSTSPIVKSFNRNEC
B7: AB205-ADL5-D19 (conjugate)
heavy: QVQLQQSGSELMMPGASVKISCKATGYTFSNYWIQRPGHGLEWIGEILPGTGRTIYNEKFKGKATFTADISSNTVQMQLSSLTSEDSAVYYCARRDYYGNFYYAMDYWGQGTSVTVSSAKTTPPSVYPLAPGSAAQTNSMVTLGCLVKGYFPEPVTVTWNSGSLSSGVHTFPAVLQSDLYTLSSSVTVPSSTWPSETVTCNVAHPASSTKVDKKIVPRDCGCKPCICTVPEVSSVFIFPPKPKDVLTITLTPKVTCVVVDISKDDPEVQFSWFVDDVEVHTAQTQPREEQFNSTFRSVSELPIMHQDWLNGKEFKCRVNSAAFPAPIEKTISKTKGRPKAPQVYTIPPPKEQMAKDKVSLTCMITDFFPEDITVEWQWNGQPAENYKNTQPIMDTDGSYFVYSKLNVQKSNWEAGNTFTCSVLHEGLHNHHTEKSLSHSPG
light: DIQMTQSTSSLSASLGDRVTISCSASQGINNYLNWYQQKPDGTVELLIYYTSTLQSGVPSRFSGSGSGTDYSLTISNLEPEDIGTYYCQQYSKLPRTFGGGTKLEIKRADAAPTVSIFPPSSEQLTSGGASVVCFLNNFYPKDINVKWKIDGSERQNGVLNSWTDQDSKDSTYSMSSTLTLTKDEYERHNSYTCEATHKTSTSPIVKSFNRNEC
B8: AB205-ADL10-D1 (conjugate)
heavy: QVQLQQSGSELMMPGASVKISCKATGYTFSNYWIQRPGHGLEWIGEILPGTGRTIYNEKFKGKATFTADISSNTVQMQLSSLTSEDSAVYYCARRDYYGNFYYAMDYWGQGTSVTVSSAKTTPPSVYPLAPGSAAQTNSMVTLGCLVKGYFPEPVTVTWNSGSLSSGVHTFPAVLQSDLYTLSSSVTVPSSTWPSETVTCNVAHPASSTKVDKKIVPRDCGCKPCICTVPEVSSVFIFPPKPKDVLTITLTPKVTCVVVDISKDDPEVQFSWFVDDVEVHTAQTQPREEQFNSTFRSVSELPIMHQDWLNGKEFKCRVNSAAFPAPIEKTISKTKGRPKAPQVYTIPPPKEQMAKDKVSLTCMITDFFPEDITVEWQWNGQPAENYKNTQPIMDTDGSYFVYSKLNVQKSNWEAGNTFTCSVLHEGLHNHHTEKSLSHSPG
light: DIQMTQSTSSLSASLGDRVTISCSASQGINNYLNWYQQKPDGTVELLIYYTSTLQSGVPSRFSGSGSGTDYSLTISNLEPEDIGTYYCQQYSKLPRTFGGGTKLEIKRADAAPTVSIFPPSSEQLTSGGASVVCFLNNFYPKDINVKWKIDGSERQNGVLNSWTDQDSKDSTYSMSSTLTLTKDEYERHNSYTCEATHKTSTSPIVKSFNRNEC

System: MOLP8 cells
Assay: Cell viability CellTiter-Glo, MOLP8 (CD138-expressing)
Format: cell-based
Settings: anti-CD138 ADC; for GI50: read-out: SMLA GI50
Experimental: HCC1954 (American Type Culture Collection (ATCC)) breast ductal carcinoma cells were plated at 2000 cells/well in flat bottom 96-well tissue culture plates (Corning) in a total volume of 90 μL tissue culture medium supplemented with 10% fetal bovine serum (ThermoFisher Scientific). Cells were treated with a 3-fold serial dilution of compound from 200 nM to 0.03 nM. Each concentration was tested in triplicate. At the time of treatment, a plate of untreated cells was evaluated using CellTiter-Glo®2.0 Luminescent Cell Viability Assay according to the manufacturers recommendations (Promega; #G9241). CellTiter-Glo® 2.0 reagent was added to the medium, incubated, and assayed on an EnVision Multilabel Reader (PerkinElmer). Values represent time zero (T0). […] Percentage growth inhibition was calculated as: [(T144−T0)/(C−T0)]×100 for concentrations for which T144>/=T0 or [(T144−T0)/T0]×100 for concentrations for which T144<T0. The dose response curve plots were generated using Prism 7 (Graphpad) and fit using nonlinear regression analysis and the log(inhibitor) versus response-variable slope (four parameters).
Anti-CD138 ADCs were tested in the CD138-expressing MOLP8 multiple myeloma cell line. Similarly, anti-EPHA2 ADCs were tested in the EPHA2-expressing PC3 prostate cancer cell line.

| Molecule | SMLA LD50 [nM] | SMLA Rmin (%) | GI50 [nM] |
| --- | --- | --- | --- |
| B1 | >400 | −53.125 | < 0.061 |
| B2 | >400 | −74.008 | < 0.061 |
| B3 | 0.535 | −99.306 | < 0.061 |
| B4 | 11.669 | −76.736 | < 0.061 |
| B5 | 0.656 | −100.099 | < 0.061 |
| B6 | >400 | 2.419 | 0.258 |
| B7 | >400 | −46.23 | < 0.061 |
| B8 | >400 | −25.099 |  |
